# T1: endogenous EGFLAM of mouse macrophages (BMDM) (mouse, UniProt Q4VBE4 25-1017)
# T1 sequence: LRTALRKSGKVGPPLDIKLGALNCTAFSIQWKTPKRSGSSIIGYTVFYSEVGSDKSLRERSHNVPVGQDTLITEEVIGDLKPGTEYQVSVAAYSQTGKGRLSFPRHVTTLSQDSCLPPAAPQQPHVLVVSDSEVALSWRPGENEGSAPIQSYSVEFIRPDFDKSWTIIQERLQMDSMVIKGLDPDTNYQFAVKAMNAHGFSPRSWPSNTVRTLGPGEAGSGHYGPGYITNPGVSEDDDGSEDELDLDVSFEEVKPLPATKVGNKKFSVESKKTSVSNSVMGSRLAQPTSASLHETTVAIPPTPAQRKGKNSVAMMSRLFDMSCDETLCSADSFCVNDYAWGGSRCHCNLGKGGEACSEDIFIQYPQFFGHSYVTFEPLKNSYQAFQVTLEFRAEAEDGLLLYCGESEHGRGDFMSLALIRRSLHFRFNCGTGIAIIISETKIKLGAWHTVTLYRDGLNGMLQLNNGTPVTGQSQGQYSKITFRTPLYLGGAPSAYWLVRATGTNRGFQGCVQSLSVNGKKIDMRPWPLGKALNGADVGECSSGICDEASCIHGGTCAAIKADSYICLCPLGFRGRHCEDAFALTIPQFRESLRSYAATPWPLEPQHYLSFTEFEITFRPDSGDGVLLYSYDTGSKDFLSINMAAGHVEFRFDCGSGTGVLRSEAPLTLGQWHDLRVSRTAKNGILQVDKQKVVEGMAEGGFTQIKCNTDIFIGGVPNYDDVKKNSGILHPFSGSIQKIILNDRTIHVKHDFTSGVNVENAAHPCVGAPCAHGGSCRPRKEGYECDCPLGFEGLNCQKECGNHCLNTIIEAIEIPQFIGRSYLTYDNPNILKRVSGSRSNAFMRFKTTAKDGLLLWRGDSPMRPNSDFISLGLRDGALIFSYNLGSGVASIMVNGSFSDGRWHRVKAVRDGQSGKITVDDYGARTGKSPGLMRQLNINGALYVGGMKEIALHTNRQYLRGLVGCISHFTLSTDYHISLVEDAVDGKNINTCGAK
# T2: endogenous ZBTB46 of mouse macrophages (BMDM) (mouse, UniProt Q8BID6 1-600)
# T2 sequence: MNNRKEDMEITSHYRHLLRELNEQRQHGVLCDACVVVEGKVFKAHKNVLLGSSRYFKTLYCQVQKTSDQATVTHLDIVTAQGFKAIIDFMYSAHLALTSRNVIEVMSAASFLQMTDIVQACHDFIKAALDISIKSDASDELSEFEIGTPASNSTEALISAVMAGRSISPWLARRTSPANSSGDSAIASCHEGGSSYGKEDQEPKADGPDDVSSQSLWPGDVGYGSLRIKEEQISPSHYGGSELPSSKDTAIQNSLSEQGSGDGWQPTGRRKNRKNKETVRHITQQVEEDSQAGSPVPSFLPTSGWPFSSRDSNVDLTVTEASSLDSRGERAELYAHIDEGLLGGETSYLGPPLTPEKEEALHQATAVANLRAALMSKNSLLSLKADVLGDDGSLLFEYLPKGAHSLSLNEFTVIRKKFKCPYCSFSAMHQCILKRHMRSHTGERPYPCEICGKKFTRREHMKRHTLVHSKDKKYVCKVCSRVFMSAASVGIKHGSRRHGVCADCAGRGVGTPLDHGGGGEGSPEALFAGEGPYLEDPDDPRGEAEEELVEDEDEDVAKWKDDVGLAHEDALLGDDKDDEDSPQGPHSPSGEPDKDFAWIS
# T3: ZBTB46 (zinc finger and BTB domain-containing 46), full-length recombinant human protein on the HuProt … (human, UniProt Q86UZ6 1-589)
# T3 sequence: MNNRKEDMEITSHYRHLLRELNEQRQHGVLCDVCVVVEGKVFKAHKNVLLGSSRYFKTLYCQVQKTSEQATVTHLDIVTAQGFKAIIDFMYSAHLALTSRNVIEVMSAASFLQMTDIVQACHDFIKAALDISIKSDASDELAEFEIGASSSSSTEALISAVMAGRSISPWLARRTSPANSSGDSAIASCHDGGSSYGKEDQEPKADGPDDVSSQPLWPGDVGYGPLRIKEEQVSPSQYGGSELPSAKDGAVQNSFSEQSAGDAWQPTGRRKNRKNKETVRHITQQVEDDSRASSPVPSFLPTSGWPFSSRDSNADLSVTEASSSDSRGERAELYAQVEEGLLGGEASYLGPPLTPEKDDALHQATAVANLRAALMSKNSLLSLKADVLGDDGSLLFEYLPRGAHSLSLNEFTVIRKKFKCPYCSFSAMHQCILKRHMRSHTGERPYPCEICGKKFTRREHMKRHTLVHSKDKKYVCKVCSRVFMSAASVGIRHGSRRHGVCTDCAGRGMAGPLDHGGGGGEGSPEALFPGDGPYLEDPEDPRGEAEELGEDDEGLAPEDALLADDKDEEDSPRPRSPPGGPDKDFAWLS
# B1: recombinant Rv3364c (rRv3364c) protein, N-terminal 6xHis tag (other)
# chain: MKARLPDSPLDWLVSKFAREVPGVAHALLVSVDGLPVAASEHLPRERADQLAAVTSGLASLAGGAAQLFDGGQVLQSVVEMQNGYLLLMQVGDGSALAALAATGCDIGQIGYEMAILVERVGGVVQSCRR
# notes: also called His-rRv3364c; not shown: N-terminal 6xHis tag from the pRSFDuet-1 vector
# Experiments:
# [1] = target: T4, interaction between SNX9 and p47phox (Homo sapiens, UniProt Q9Y5X1); format: cell-based; settings: HEK293T cells, Flag-Rv3364c 1, 5, 10 μg, 12 hours
# T4 construct: different regions 1-595, 1-250, 250-361, and 392-595 of SNX9; p47phox plasmid as in Biomaterials 2016, 89, 1-13; host or cells: HEK293T
# T4 sequence (Q9Y5X1 whole entry): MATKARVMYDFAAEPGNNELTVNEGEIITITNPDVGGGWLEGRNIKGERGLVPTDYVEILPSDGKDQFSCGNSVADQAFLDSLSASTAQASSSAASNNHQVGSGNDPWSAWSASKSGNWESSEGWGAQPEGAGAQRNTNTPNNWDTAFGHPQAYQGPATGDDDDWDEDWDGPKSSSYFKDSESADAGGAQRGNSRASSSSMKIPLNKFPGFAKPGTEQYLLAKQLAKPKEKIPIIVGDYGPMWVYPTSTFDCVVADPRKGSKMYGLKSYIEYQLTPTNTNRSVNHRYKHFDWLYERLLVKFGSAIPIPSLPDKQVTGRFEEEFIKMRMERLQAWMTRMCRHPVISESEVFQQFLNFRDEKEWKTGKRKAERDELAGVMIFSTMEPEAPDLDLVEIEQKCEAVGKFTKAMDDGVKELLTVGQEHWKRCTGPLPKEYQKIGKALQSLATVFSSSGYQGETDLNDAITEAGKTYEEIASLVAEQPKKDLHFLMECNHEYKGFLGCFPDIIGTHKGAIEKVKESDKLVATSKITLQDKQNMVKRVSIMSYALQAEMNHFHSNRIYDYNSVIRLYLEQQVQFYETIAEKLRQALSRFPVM
# [2] = target: T5, interaction between YEATS4 and Rv3364c (Homo sapiens, UniProt O95619); format: cell-based
# T5 construct: host or cells: 293 / HEK293T
# T5 sequence (O95619 whole entry): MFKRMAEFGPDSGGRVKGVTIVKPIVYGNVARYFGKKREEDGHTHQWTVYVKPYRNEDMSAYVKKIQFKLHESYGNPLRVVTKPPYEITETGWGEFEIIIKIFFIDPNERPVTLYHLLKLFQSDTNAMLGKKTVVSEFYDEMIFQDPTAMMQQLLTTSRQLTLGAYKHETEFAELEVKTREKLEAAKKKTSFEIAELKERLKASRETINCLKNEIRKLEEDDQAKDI
# [3] = target: T6, interaction between SNX9 and Rv3364c (Homo sapiens, UniProt Q9Y5X1); format: cell-based
# T6 construct: different regions 1-595, 1-250, 250-361, and 392-595 of SNX9; host or cells: 293 / HEK293T
# T6 sequence (Q9Y5X1 whole entry): as the sequence (Q9Y5X1 whole entry) above
# [4] = target: T1, endogenous EGFLAM of mouse macrophages …; assay: anti-His co-IP from BMDM treated with rRv3364c, anti-EGFLAM blot
# [5] = target: T2, endogenous ZBTB46 of mouse macrophages …; assay: anti-His co-IP from BMDM treated with rRv3364c, anti-ZBTB46 blot
# [6] = target: T7, endogenous SNX9 of mouse macrophages (BMDM, Raw264.7) (mouse, UniProt Q91VH2 1-595); assay: anti-His co-IP from BMDM treated with 1 ug/ml rRv3364c, anti-SNX9 blot
# T7 construct: also called SNC9
# T7 sequence (Q91VH2 whole entry): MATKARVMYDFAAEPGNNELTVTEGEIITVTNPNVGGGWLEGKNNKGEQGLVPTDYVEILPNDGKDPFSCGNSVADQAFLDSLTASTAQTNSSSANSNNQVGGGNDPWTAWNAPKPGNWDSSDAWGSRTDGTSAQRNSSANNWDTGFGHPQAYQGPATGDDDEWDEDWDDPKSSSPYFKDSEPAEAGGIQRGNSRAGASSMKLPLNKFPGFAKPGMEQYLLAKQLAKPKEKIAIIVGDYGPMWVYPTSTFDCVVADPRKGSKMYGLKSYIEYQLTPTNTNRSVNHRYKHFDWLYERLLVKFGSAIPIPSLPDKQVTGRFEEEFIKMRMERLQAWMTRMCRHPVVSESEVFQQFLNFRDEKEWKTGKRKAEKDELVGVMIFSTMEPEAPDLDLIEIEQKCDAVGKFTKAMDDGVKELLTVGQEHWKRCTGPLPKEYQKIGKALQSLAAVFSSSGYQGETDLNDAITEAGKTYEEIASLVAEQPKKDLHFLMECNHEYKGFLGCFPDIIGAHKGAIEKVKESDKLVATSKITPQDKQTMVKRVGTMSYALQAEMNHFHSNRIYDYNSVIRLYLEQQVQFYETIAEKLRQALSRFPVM
# [7] = target: endogenous YEATS4 of mouse macrophages (BMDM, Raw264.7) (mouse, UniProt Q9CR11 1-227); assay: anti-His co-IP from BMDM treated with 1 ug/ml rRv3364c, anti-YEATS4 blot
# endogenous YEATS4 of mouse macrophages (BMDM, Raw264.7), sequence (Q9CR11 whole entry): as the sequence (O95619 whole entry) above, with A224T counted along it
# [8] = target: SNX9 (sorting nexin 9), full-length recombinant human protein on the HuProt microarray (human, UniProt Q9Y5X1 1-595); assay: HuProt human proteome microarray, biotinylated rRv3364c, streptavidin Alexa Fluor 532
# SNX9 (sorting nexin 9), full-length recombinant human protein on the HuProt microarray, sequence (Q9Y5X1 whole entry, the tested form may be a part): as the sequence (Q9Y5X1 whole entry) above
# [9] = target: YEATS4 (YEATS domain-containing protein 4), full-length recombinant human protein on the HuProt microarray (human, UniProt O95619 1-227); assay: as above
# YEATS4 (YEATS domain-containing protein 4), full-length recombinant human protein on the HuProt microarray, sequence (O95619 whole entry, the tested form may be a part): as the sequence (O95619 whole entry) above
# [10] = target: T3, ZBTB46 (zinc finger and BTB …); assay: as above
molecule,measurement,setting,value
"Rv3364c: Rv3364c protein of Mycobacterium tuberculosis, expressed in 293T cells from a Flag-tagged plasmid",interaction between SNX9 and p47phox,[1],decreased as the amount of Rv3364c increased
MKARLPDSPL [Tat-Rv3364c (1MKARLPDSPL10)],blocking of the interaction between YEATS4 and Rv3364c,[2],block the interaction between YEATS4 and Rv3364c
WLVSKF (Rv3364c(12-17 aa)) [12WLVSKF17],region of Rv3364c required for interaction with SNX9,[3]; FIG. 5,minimum peptide essential for interaction with SNX9
DWLVSKFARE [Tat-Rv3364c (11DWLVSKFARE20)],blocking of the interaction between SNX9 and Rv3364c,"[3]; 293 cells with Myc-SNX9 and Flag-Rv3364c, peptide 5 μM, 12 hours",block the interaction between SNX9 and Rv3364c
B1,binding result,[4],no binding (tested: 1 ug/ml rRv3364c)
same,binding result,[5],no binding (tested: 1 ug/ml rRv3364c)
same,binding result,[6],binds
same,binding result,[7],binds
same,binding result,[8],binds
same,binding result,[9],binds
same,binding result,[10],binds

# Source: patent US20230203107A1, “PEPTIDE FOR TREATING SEPSIS DERIVED FROM RV3364C PROTEIN OF MYCOBACTERIUM TUBERCULOSIS” (priority 2021, published 2023)
